Measurements taken from patent publication US20260226158A1 (DE NOVO BIOTHERAPEUTICS, published 2026).
Like-named read-outs stand apart in the source and are kept apart here.

Legend:
[1] = molecular target: monkey NKp46 protein (monkey); experiment: ELISA on coated monkey NKp46 protein (title 'Cyno NKp46'), HRP anti-human IgG, OD 450 nm
Protocol: (§1) Human NKp46 protein and monkey NKp46 protein were each added at a concentration of 0.5 μg/mL to a 96-well plate and reacted for 1 hour at 37° C., followed by three washes with an appropriate volume of washing solution (0.05% Tween20, PBS), and then treated with 150 μL of blocking solution (1% BSA, PBS) for 1 hour at 37° C. After washing three times with an appropriate volume of washing solution (0.05% Tween20, PBS), the wells were treated with 3 serial dilutions of 1 μg/mL of anti-human NKp46 antibody at the maximum concentration and reacted for 1 hour at 37° C. […] The degree of binding between antigen and antibody was detected with 3′,5,5′-tetramethylbenzidine solution. Finally, the reaction was stopped by adding 1M HCl, and the absorbance was measured at 450 nm using an ELISA reader (Thermo Fisher Scientific). Four antibodies (1-2, 1-4-2, 1-8, and 1-10) that specifically bind to human NKp46 and monkey NKp46 were selected by the above two binding tests.

[2] = molecular target: T1, 6506GJ130-1A: Human NKP46 Recombinant Protein (His) (human, UniProt O76036 22-258, limits assumed); experiment: ELISA on coated human NKp46 protein, HRP anti-human IgG, OD 450 nm [label printed at foot of D00002]]
T1 construct: also called human NKp46 protein; not shown: His tag
T1 sequence (O76036 22-258 limits assumed): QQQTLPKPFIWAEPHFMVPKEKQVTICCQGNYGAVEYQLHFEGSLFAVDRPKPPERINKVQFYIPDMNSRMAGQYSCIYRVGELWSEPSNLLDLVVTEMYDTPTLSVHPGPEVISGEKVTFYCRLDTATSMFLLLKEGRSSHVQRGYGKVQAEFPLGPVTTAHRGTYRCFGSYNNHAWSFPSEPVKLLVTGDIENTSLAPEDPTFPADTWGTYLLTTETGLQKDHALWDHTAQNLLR
Protocol: as §1

[3] = molecular target: monkey NKp46 protein (monkey); experiment: ELISA on coated monkey NKp46 protein (title 'Cyno NKp46'), HRP anti-human IgG, OD 450 nm; remark: listed apart in the source
[4] = molecular target: T1, 6506GJ130-1A: Human NKP46 Recombinant …; experiment: ELISA on coated human NKp46 protein (title 'Human NKp46'), HRP anti-human IgG, OD 450 nm [label printed on D00006]]

Chain of monkey NKp46 protein (monkey) (Q95JB9 22-257): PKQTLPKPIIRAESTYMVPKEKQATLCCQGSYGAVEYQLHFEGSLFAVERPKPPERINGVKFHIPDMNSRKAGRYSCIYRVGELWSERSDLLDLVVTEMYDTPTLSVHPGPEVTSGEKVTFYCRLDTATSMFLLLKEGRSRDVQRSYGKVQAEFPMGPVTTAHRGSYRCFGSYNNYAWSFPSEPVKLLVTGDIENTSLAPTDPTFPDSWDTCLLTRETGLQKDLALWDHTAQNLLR

| Binder | EC50 (read off the curve) [1] | EC50 (read off the curve) [2] | EC50 (read off the curve) [3] | EC50 (read off the curve) [4] |
| --- | --- | --- | --- | --- |
| u6506gj130-1-10 (antibody, human IgG4 S228P, kappa, V domains shown, Beacon screening) VH: QVQLQQPGAELVKPGASVKLSCKASGYIFTSYWMHWVKQRPGQGLEWIGMIHPNSGSTNYNEKFKSKATLTVDKSSSTAYMQLSSLTSEDSAVYYCAREGNWARGYFEYWGQGTTLTVSS VL: DIKMTQSPSSMYASLGERVTITCKASQDINSYLSWFQQKPGKSPKTLIYRANRLVDGVPSRFSGSGSGQDYSLTISSLEYEDVGMYYCLQYDEFPYTFGGGTKLEIKR | ~0.2 nM | ~0.2 nM | – | – |
| u6506gj130-1-2 (antibody, human IgG4 S228P, kappa, V domains shown, Beacon screening) VH: EVQLQQSGPELVKPGASVKISCQASGYTFTDYYLNWVKQSHGKSLEWIGDIDPHNGGTSYNQKFKDKATLTVDKSSSTAYMELRSLTSEDSAVYYCARFPIYYSGSSPMDYWGQGTSVTVSS VL: DIQMTQSPASLSASVGETVTITCRTNENIFSYLAWYQQKQGKSPQLLVYNAKTLAEGVPSRFSGSASGTQFSLKINTLQPEDFGSYYCQHHYGTPYTFGGGTKLEIIR | – | ~0.2 nM | – | – |
| 32C9F4 (antibody, human IgG4 S228P, kappa, V domains shown, Hybridoma screening; also called 2-2) VH: QVQLQQPGAELVKPGASVKLSCKASGYTFTSYWMHWVKQRPGQGLEWIGMIHPNSGVTKYNEKFKSKATLTVDKSSSTAYMQLSSLTSEDSAVYFCAGDGRFAYWGQGTLVTVSA VL: DIQMTQSPSSLSASLGERVSLTCRASQDIGSSLNWLQQEPDGTIKRLIYATSSLDSGVPKRFSGSRSGSDYSLTISSLESEDFVDYYCLQYASSPWTFGGGTKLEIKR | – | – | ~0.03 nM | ~0.05 nM |
| 28E10B12 (antibody, human IgG4 S228P, kappa, V domains shown, Hybridoma screening; also called 2-3) VH: QVQLQQPGAELVKPGASVKLSCKASGYTFTSYWMNWVKQRPGQGLEWIGMIHPNSDITNYNEKFKSQATLTVDKSSSTAYMQLSSLTSEDSAVYYCARHGRFDYWGQGTTLTVSS VL: DIQMTQSPSSLSASLGERVTLTCRASQDIGSSLNWLQQEPDGTIKRLIYATSSLDSGVPKRFSGSRSGSDYSLTISSLESEDFVDYYCLQYASSPFTFGSGTKLEIKR | – | – | ~0.03 nM | ~0.03 nM |
| 45A10D5 (antibody, human IgG4 S228P, kappa, V domains shown, Hybridoma screening; also called 2-1) VH: QVQLQQPGAELVKPGASVKLSCKASGYTFTSYWMHWVKQRPGQGLEWIGMIHPNSGSTNYNEKFKSKATLTVDKSSSTAYMQLSSLTSEDSAVYYCVYDGRFAYWGQGTLVTVSA VL: DIQMTQSPSSLSASLGERVSLTCRASQDIGSSLNWLQQEPDGTIKRLIYATSSLDSGVPKRFSGSRSGSDYSLTISSLESEDFVDYYCLQYASSPFTFGSGTKLEIKR | – | – | ~0.06 nM | ~0.05 nM |
